Assay results as given in patent US20240139351A1, “TARGETING SYSTEM WITH IMPROVED UPTAKE” (CORETAG IP B.V., priority 2021, published 2024).

Columns and labels:
NCI-H69 tumor = test: Biodistribution of 111In-radiolabeled compounds in mice bearing NCI-H69 tumors
Excerpt: CORETAG has evaluated the radiolabeling, in vitro binding, pharmacology in tumor animal model, and PET or SPECT imaging with an overall expertise in targeted radiotherapy and companion imaging diagnostic. The aim of this part is to evaluate the biodistribution of the 4 compounds below and compare it to the biodistribution of DOT-AGA-PEG4-CW800 (prior art).
The injected activity was about 9.0 MBq.
The NCI-H69 cell line used is a human small cell lung cancer carcinoma that was
Tumor cells were grown at 37° C. in a humidified atmosphere (5% CO2, 95% air). The culture medium will be RPMI1640 medium containing 10% fetal calf serum. NCI-H69 tumor cells are growing as a cell suspension. For experimental use, tumor cells were harvested by centrifugation. Cells were counted and viability assessed using a 0.25% try-pan blue exclusion assay.
Thirty-one (31) healthy female SWISS Nude (Crl:NU(Ico)-Foxn1nu) mice, 6-8 weeks old at reception, were obtained from Charles River. The injection volume was 100 μl.
Tumors were induced by subcutaneous injection of 2×10^7 NCI-H69 cells in 200 μL of RPMI 1640 into the right flank of 31 female animals in the axis of the heart. NCI-H69 tumor cell implantation was performed 24 to 72 hours after a whole-body irradiation with a gamma-source (2 Gy, 60 Co, BioMep, France). The day of tumor induction is considered as D0.
All imaging experiments were performed on a 4.7T horizontal magnet (PharmaS-can, Bruker Biospin GmbH, Germany) equipped with an actively shielded gradient system. All the MR images were acquired under ParaVision (PV5.1, Bruker Biospin).

[1] = Clearance of cyanines in the human body; conditions: in vivo
Excerpt: (§1) The present targeting molecule is very selective and very specific in binding to necrotic cells. […] For the present invention three specific cyanines are selected, namely 800CW, 800RS, and ZW-800. These molecules are found to have a high affinity towards the intracellular proteins, including tubulin and actin. […] As a result, very low concentrations c.q. amounts of the present system may be used to provide advantageous effects thereof. It is noted that apoptosis specific probes, in contrast to necrosis specific probes will also target healthy tissue as apoptosis is involved in normal tissue turnover. The present cyanine is attached to a second entity, namely a linker, wherein the linker may even be a relatively small molecule, the linker being attached to the present drug uptake improving molecule, wherein the drug uptake improving molecule is selected from aromatic compounds comprising a residue or group selected from amino acid residues, which latter molecule is attached to the chelator, wherein the chelator is typically selected from DOTA and NOTA comprising compounds (DOTA: 1,4,7,10-Tetraazacy-clododecane-1,4,7,10-tetraacetic acid and NOTA: 1,4,7-triazacyclononane-N,N′,N″-tri-acetic acid). Attached to the chelator a further entity may be attached, such as a radionuclide. […]

[2] = system: intracellular proteins, including tubulin and actin; test: Affinity of cyanines towards intracellular proteins; assay type: binding
Excerpt: as §1

[3] = Aqueous solution concentration; assay type: physicochemical

**Q.** With DOTAGA-LYS-(PEG4-CW800)2 [component 5] as the compound, how does the “Uptake in all organs” value (NCI-H69 tumor; all organs) read?
**A.** Its value is “increased”.

**Q.** What about the “concentration present (assessment)” value (NCI-H69 tumor; mouse, in vivo) of the same compound?
**A.** Its value is “too high concentration”.

**Q.** What about the uptake in tumor (NCI-H69 tumor; tumor) of the same compound?
**A.** Its uptake in tumor is “higher uptake”.

**Q.** With CC1(C)C(/C=C/C2=C(Oc3ccc(S(=O)(=O)O)cc3)C(=C/C=C3/N(CCCCS(=O)(=O)O)c4ccc(S(=O)(=O)[O-])cc4C3(C)C)/CCC2)=[N+](CCCCCC(=O)O)c2ccc(S(=O)(=O)O)cc21 [800CW] as the compound, how does the “clearance in the human body” value [1] read?
**A.** Its value is “cleared in the human body specifically well”.

**Q.** What about the “affinity towards the intracellular proteins” value [2] of the same compound?
**A.** The value was “high affinity”.

**Q.** Which “forms an aqueous solution” value [3] does the source give for IR800CW-PEG4-NaI-DOTA-GA [component 6] here?
**A.** The value was > 1 mM.

**Q.** What about the “Radioactivity in blood (comparison between components)” value (NCI-H69 tumor; mouse, in vivo) of the same compound?
**A.** The value was “higher”.

**Q.** And the “dosage to all organs tested compared to components 1-4” value (NCI-H69 tumor; mouse, in vivo)?
**A.** Its value is “about twice as high”.

**Q.** What about the “dosage to the tumor compared to components 1-4” value (NCI-H69 tumor; mouse, in vivo) of the same compound?
**A.** The value was “about twice as high”.

**Q.** And the uptake in tumor (NCI-H69 tumor; mouse, in vivo)?
**A.** The uptake in tumor was “higher uptake”.

**Q.** And the “Remaining radioactivity in whole body after 3 h” value (NCI-H69 tumor; mouse, in vivo, 3 h)?
**A.** The value was “higher”.

**Q.** Which “clearance in the human body” value [1] does the source give for CC1(C)C(=CC=C2CCCC(C=CC3=[N+](CCC[N+](C)(C)C)c4ccc(S(=O)(=O)O)cc4C3(C)C)=C2Oc2ccc(CCC(=O)O)cc2)N(CCC[N+](C)(C)C)c2ccc(S(=O)(=O)O)cc21 [ZW-800] here?
**A.** Its value is “cleared in the human body specifically well”.

**Q.** What about the “affinity towards the intracellular proteins” value [2] of the same compound?
**A.** The value was “high affinity”.
